Measured values taken from article PMC8904060.

Experiments:
[1] = biological target: FimH variant 5 (recombinant dscFimH-His6) (E. coli | not stated) (UniProt P08191); assay: SPR; BIAcore T200; FimH variant immobilised on CM5 chip (target amount 2,000 RU); GP2 isoforms as analytes at 0.5, 2.0, 6.0, 16 and 29 uM in PBS-P+; 25 C, 30 uL/min; association 3 min, dissociation 10 min; global 1:1 Langmuir fit
[2] = biological target: FimH variant 9 (recombinant dscFimH-His6) (E. coli | not stated) (UniProt P08191); assay: as above

Substance	Kd [1]	koff [1]	kon [1]	Kd [2]	koff [2]	kon [2]
bovine GP2 isoform 1 (major zymogen granule membrane glycoprotein 2), recombinant secreted form (natural protein)	179 nM	9.65e-05 s⁻¹	538 M⁻¹ s⁻¹	340 nM	0.000187 s⁻¹	551 M⁻¹ s⁻¹
bovine GP2 isoform 2 (major zymogen granule membrane glycoprotein 2), recombinant secreted form (natural protein)	136 nM	7.41e-05 s⁻¹	545 M⁻¹ s⁻¹	93.4 nM	5.72e-05 s⁻¹	612 M⁻¹ s⁻¹
human GP2 isoform 2, recombinant (natural protein)	97.8 nM	0.000102 s⁻¹	1040 M⁻¹ s⁻¹	22.5 nM	2.38e-05 s⁻¹	1060 M⁻¹ s⁻¹
porcine GP2 isoform 2, recombinant (natural protein)	95.7 nM	8.32e-05 s⁻¹	870 M⁻¹ s⁻¹	98.5 nM	8.84e-05 s⁻¹	898 M⁻¹ s⁻¹
human GP2 isoform 4, recombinant (natural protein)	21.7 nM	1.68e-05 s⁻¹	772 M⁻¹ s⁻¹	0.927 nM	4.31e-07 s⁻¹	465 M⁻¹ s⁻¹
porcine GP2 isoform 1, recombinant (natural protein)	22.6 nM	1.71e-05 s⁻¹	758 M⁻¹ s⁻¹	158 nM	8.44e-05 s⁻¹	535 M⁻¹ s⁻¹
